Source: patent US20050074845A1 (Sanofi, published 2005)

Target: T1, human GLUT4 (human, UniProt P14672 1-509, limits assumed)
T1 construct: The ubiquitin-half fusion partners and the limits of the construct are not described; also called Glut 4 transporter
T1 sequence (looked up): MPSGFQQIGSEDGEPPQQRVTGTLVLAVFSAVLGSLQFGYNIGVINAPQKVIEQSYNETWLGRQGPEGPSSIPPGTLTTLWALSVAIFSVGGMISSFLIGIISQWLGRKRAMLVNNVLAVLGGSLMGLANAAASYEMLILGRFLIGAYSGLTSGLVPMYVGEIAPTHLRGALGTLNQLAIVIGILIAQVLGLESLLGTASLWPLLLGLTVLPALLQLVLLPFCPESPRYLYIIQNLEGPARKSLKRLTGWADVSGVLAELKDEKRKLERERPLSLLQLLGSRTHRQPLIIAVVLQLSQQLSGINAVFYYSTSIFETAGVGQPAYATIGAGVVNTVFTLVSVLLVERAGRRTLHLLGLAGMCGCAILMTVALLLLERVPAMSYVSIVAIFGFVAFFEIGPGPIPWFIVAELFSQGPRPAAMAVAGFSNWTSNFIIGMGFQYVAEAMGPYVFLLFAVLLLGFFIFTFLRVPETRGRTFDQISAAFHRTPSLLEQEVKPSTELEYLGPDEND
Assay: split-ubiquitin protein interaction assay in yeast

B1: yeast Erg4 (enzyme)
chain: not shown
notes: The ubiquitin-half fusion partners and the limits of the construct are not described; also called Erg4 protein; sterol C-24(28)-reductase
Does B1 bind?
Result: binds
